The values that follow come from paper PMC10960309.

Assay in all cases: purified protein
Common to all, as to details: 50 mM sodium borate pH 9.5, 37°C, 1.9 mM OPA, 1 mM DTT, 5% DMSO

Substrate in data set [1]: CCCCCCCCCC(=O)CC(=O)N[C@H]1CCOC1=O
Substrate in data set [2]: CCCCCCCC(=O)N[C@H]1CCOC1=O
Substrate in data set [3]: CCCCCCCCCCCC(=O)N[C@H]1CCOC1=O
Substrate in data set [4]: CCCCCCCCCC(=O)N[C@H]1CCOC1=O

B1: PvdQ (Pseudomonas aeruginosa PAO1) (protein)
chain 1: DMPRPTGLAADIRWTAYGVPHIRAKDERGLGYGIGYAYARDNACLLAEEIVTARGERARYFGSEGKSSAELDNLPSDIFYAWLNQPEALQAFWQAQTPAVRQLLEGYAAGFNRFLREADGKTTSCLGQPWLRAIATDDLLRLTRRLLVEGGVGQFADALVAAAPPGAEKV
chain 2: SNAIAVGSERSADGKGMLLANPHFPWNGAMRFYQMHLTIPGRLDVMGASLPGLPVVNIGFSRHLAWTHTVDTSSHFTLYRLALDPKDPRRYLVDGRSLPLEEKSVAIEVRGADGKLSRVEHKVYQSIYGPLVVWPGKLDWNRSEAYALRDANLENTRVLQQWYSINQASDVADLRRRVEALQGIPWVNTLAADEQGNALYMNQSVVPYLKPELIPACAIPQLVAEGLPALQGQDSRCAWSRDPAAAQAGITPAAQLPVLLRRDFVQNSNDSAWLTNPASPLQGFSPLVSQEKPIGPRARYALSRLQGKQPLEAKTLEEMVTANHVFSADQVLPDLLRLCRDNQGEKSLARACAALAQWDRGANLDSGSGFVYFQRFMQRFAELDGAWKEPFDAQRPLDTPQGIALDRPQVATQVRQALADAAAEVEKSGIPDGARWGDLQVSTRGQERIAIPGGDGHFGVYNAIQSVRKGDHLEVVGGTSYIQLVTFPEEGPKARGLLAFSQSSDPRSPHYRDQTELFSRQQWQTLPFSDRQIDADPQLQRLSIRE
As usually defined, the Km is the concentration of substrate that gives half-maximal velocity. By kcat is commonly meant the number of substrate molecules converted per active site and unit of time at saturation. Broadly, the kcat/Km is the turnover number divided by the Michaelis constant. Consider B1, for which the Km entry in “purified protein [1]” is “(2.35 ± 0.07) × 10^2 μM”; in the data set “purified protein [2]”, “(1.18 ± 0.34) × 10^2 μM”; in “purified protein [3]”, 98.1 ± 34.1 µM; in “purified protein [4]” it was “(1.13 ± 0.42) × 10^2 μM”. In addition, the kcat in the data set “purified protein [1]” stood at 5.23 ± 0.55 s⁻¹. Moreover, the catalytic efficiency (kcat/Km) in the data set “purified protein [1]” is 22200 ± 4000 M⁻¹ s⁻¹.
